The target in series [1] is T1, Streptomyces sp. strain TH1 L-proline-3-hydroxylase (cis-P3H), wild type (WT), SEQ ID NO. 1 (Streptomyces sp., UniProt P96010).
T1 sequence (P96010 1-290): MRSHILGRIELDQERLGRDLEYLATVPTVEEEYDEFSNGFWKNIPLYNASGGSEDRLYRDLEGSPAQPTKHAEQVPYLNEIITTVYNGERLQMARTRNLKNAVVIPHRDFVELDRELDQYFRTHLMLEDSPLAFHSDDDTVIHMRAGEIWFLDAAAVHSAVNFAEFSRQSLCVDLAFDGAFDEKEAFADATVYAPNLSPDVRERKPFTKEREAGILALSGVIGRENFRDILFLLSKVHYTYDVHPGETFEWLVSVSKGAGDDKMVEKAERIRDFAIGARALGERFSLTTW
Put plainly: Kinetic parameters of wild-type L-proline-3-hydroxylase (Michaelis-Menten fit). Conditions: WT pure enzyme; L-pipecolic acid 0.30 to 25 mM, 2-OG 0.30 to 40 mM; pH 6.5, 17° C.; three measurements. The series is classed as biochemical. On the procedure:
[…]
(§1) The reaction was terminated by boiling, and the sample after the termination of reaction was analyzed by high-performance liquid chromatography (HPLC). […]
(§2) Kinetic parameters (Km and Vmax) were determined using a reaction mixture with a final volume of 250 μL. […]

Series [2] addresses T2, Streptomyces sp. strain TH1 L-proline-3-hydroxylase (cis-P3H, SEQ ID NO. 1) mutant R97M (Streptomyces sp., UniProt P96010, R97M).
T2 sequence (P96010 1-290 R97M): T1 sequence (P96010 1-290) with R97M
Put plainly: Kinetic parameters of L-proline-3-hydroxylase mutant R97M (Michaelis-Menten fit). It counts as biochemical. On the procedure:
[…]
as §1, §2

Substrate in series [3]: O=C(O)CCC(=O)C(=O)O
Nature of the series: purified protein, by the assay type. To be noted: L-pipecolic acid 0.30 to 25 mM, 2-OG 0.30 to 40 mM, pH 6.5, 17° C., three measurements.

Substrate in series [4]: O=C(O)[C@@H]1CCCCN1
Nature of the series: Kinetic parameters of L-proline-3-hydroxylase mutant R97M (Michaelis-Menten fit). The series is classed as biochemical, Streptomyces sp. strain TH1. To be noted: other: R97M pure enzyme, L-pipecolic acid 0.30 to 25 mM, 2-OG 0.30 to 40 mM, pH 6.5, 17° C., three measurements.
Excerpt: (§3) The present disclosure further provides a method for constructing the L-proline-3-hydroxylase mutant above, the method includes the following steps: • (1) according to sequence information of the L-proline-3-hydroxylase from Streptomyces sp. strain TH1 disclosed in the NCBI database, performing codon optimization based on codon preference rules of Escherichia coli to obtain an optimized gene of L-proline-3-hydroxylase; connecting the optimized gene of L-proline-3-hydroxylase into an expression vector pET28a to construct an L-proline-3-hydroxylase expression vector; • (2) using genes (involved in site-directed saturation mutagenesis) synthesized by GENCEFE Biotech to prepare an expression vector containing the L-proline-3-hydroxylase mutant; • (3) transforming the above vectors into BL21 engineering bacteria by chemical transformation to express each enzyme protein; culturing the strain in a test tube at 37° C. shaker overnight, transferring the same to an LB liquid culture medium containing 50 mg·L^−1 kanamycin at a 2% inoculation rate, culturing at 37° C. for 2-2.5 hours, and then adding IPTG with a concentration of 0.10 mM to adjust a temperature to 17° C. and culturing for 16 hours; • (4) centrifuging at 8000 r·min^−1 for 5 minutes and collecting bacterial pellets, disrupting cells through an ultrasonic disruption method, centrifuging in a refrigerated centrifuge at 12000 r·min^−1 for 30 minutes to collect supernatant, directly using the supernatant for crude enzyme reaction to explore changes in molar yield under crude enzyme conditions; or purifying the supernatant with a nickel column, and enzymatic properties such as enzyme activity and kinetic parameters of the pure L-proline-3-hydroxylase can be determined. Specifically, the enzyme activity is detected using an Fmoc-Cl pre-column derivatization method, and analyzed by high-performance liquid chromatography (HPLC). The kinetic parameters (Km and Vmax) are measured in a standard enzyme activity assay system, with three separate measurements. Data are fitted to a Michaelis-Menten model using GraphPad Prism, and a protein concentration is kept at 0.50 mg·mL-1 during the measurements.
(§4) Specifically, the reaction under crude enzyme conditions was performed for 12 hours, the reaction under pure enzyme conditions was performed for 15 minutes, and a final protein concentration for the reaction under pure enzyme conditions was 0.5 mg·mL^−1.
as §1, §2

Substrate in series [5]: O=C(O)[C@@H]1CCCCN1
Nature of the series: Kinetic parameters of wild-type L-proline-3-hydroxylase (Michaelis-Menten fit). Conditions: other: WT pure enzyme, L-pipecolic acid 0.30 to 25 mM, 2-OG 0.30 to 40 mM, pH 6.5, 17° C., three measurements. It counts as biochemical, Streptomyces sp. strain TH1.
Excerpt: as §3, §4, §1, §2

Substitutions are numbered along the chain they refer to. In names and notes the source's numbering stands.

In general, kcat/Km refers to the turnover number divided by the Michaelis constant. In general, Km refers to the concentration of substrate that gives half-maximal velocity. In general, Vmax refers to the top rate of the reaction or transport when substrate is in excess. One may read the kcat as the number of substrate molecules converted per active site and unit of time at saturation.

With `O=C(O)[C@@H]1CCCCN1` [L-Pip, L-pipecolic acid], the kcat/Km in series [1] turned out to be 19 M⁻¹ s⁻¹; in series [2] (R97M pure enzyme, L-pipecolic acid 0.30 to 25 mM, 2-OG 0.30 to 40 mM, pH 6.5, 17° C., three measurements) it was 34.8 M⁻¹ s⁻¹. For the same molecule, the “catalytic efficiency kcat/Km of R97M relative to WT” value in series [2] (ratio R97M / WT) is 1.83 times.

B1: Streptomyces sp. strain TH1 L-proline-3-hydroxylase (cis-P3H, SEQ ID NO. 1) mutant R97M (Streptomyces sp.; R97M) (protein)
chain: T1 sequence (P96010 1-290) with R97M
B1: in series [3] (other: R97M pure enzyme), the Michaelis-Menten constant (Km) is recorded as 1.46 ± 0.01 mM, the maximum rate (Vmax) was found to be 139 µM/min, the turnover number (kcat) came out at 0.151 s⁻¹ and the catalytic efficiency (kcat/Km) was determined as 104 M⁻¹ s⁻¹. In series [4], the Km stood at 6.83 ± 0.32 mM, the Vmax came out at 212 µM/min, the turnover number (kcat) was determined as 0.23 ± 0.00367 s⁻¹ and the kcat/Km was 34.8 ± 1 M⁻¹ s⁻¹.

B2: Streptomyces sp. strain TH1 L-proline-3-hydroxylase (cis-P3H), wild type (WT), SEQ ID NO. 1 (Streptomyces sp.) (protein)
chain: T1 sequence (P96010 1-290)
B2: in series [3] (other: WT pure enzyme), the Michaelis-Menten constant (Km) amounted to 0.76 ± 0.02 mM, the Vmax was determined as 101 µM/min, the turnover number (kcat) is 0.102 s⁻¹ and the specificity constant (kcat/Km) came out at 134 M⁻¹ s⁻¹. Besides, in series [5], the Michaelis-Menten constant (Km) is recorded as 10.27 ± 0.40 mM, the Vmax was 201 µM/min, the catalytic constant (kcat) is 0.2038 ± 0.002 s⁻¹ and the catalytic efficiency (kcat/Km) is 19 ± 0.5 M⁻¹ s⁻¹.

Values taken from patent US12415992B2, “Dioxygenase mutants and use thereof in synthesizing (2S,3R)-3-hydroxypipecolic acid” (Jiangnan University, priority 2023, dated 2025).
